{
  "source": "paper PMC10624902",
  "about": "“Structure of a membrane-bound menaquinol:organohalide oxidoreductase” (Nature Communications, 2023)",
  "key": {"[1]": {"target": "T1, PceA2B2 complex (menaquinol:organohalide oxidoreductase, MOOR; DhPceA / DhPceB) (Desulfitobacterium hafniense, UniProt Q8GJ30+Q8GJ31)", "T1 construct": "gene pceA; native complex from D. hafniense membranes, DDM-solubilised, SEC into LMNG; no tag; PceA C-terminal domain S486-Q551 present; PceA exported via Tat", "T1 sequence (Q8GJ31 40-551)": "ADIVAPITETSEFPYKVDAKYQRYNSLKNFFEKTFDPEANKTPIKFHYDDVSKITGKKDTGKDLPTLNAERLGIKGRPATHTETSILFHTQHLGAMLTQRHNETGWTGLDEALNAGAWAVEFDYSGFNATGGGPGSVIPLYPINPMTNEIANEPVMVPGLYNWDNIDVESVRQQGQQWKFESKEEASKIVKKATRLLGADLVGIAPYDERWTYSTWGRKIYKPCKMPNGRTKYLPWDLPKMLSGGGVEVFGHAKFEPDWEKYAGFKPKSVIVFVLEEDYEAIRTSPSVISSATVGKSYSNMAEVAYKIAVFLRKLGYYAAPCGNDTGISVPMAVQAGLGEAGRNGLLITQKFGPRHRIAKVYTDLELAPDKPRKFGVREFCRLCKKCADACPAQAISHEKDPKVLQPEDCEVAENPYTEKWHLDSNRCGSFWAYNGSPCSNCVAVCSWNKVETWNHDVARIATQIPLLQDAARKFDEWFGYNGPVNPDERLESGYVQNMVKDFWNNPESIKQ", "T1 sequence (Q8GJ30 1-105)": "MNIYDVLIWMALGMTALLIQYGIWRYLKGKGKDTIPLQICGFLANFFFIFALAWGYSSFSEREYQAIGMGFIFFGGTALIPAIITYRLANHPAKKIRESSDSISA", "experiment": "cryo-EM structure, […] A", "type": "binding", "settings": "PceA active site / channel, 5.3 A from cobalt; cells grown with PCE"}, "[2]": {"target": "the molecule itself", "experiment": "native gel or EMSA; Clear-Native PAGE (5-15% gradient, Bis-Tris) of DDM-solubilised membrane extract and soluble fraction, anaerobic; Coomassie and in-gel PCE dehalogenase activity staining; the ~180 kDa band cut out, run on SDS-PAGE as second dimension and analysed by LC-MS/MS"}, "[3]": {"target": "the molecule itself", "experiment": "cryo-EM structure; native PceA2B2 complex purified from the membrane extract by SEC in 25 mM HEPES-NaOH pH 7.5, 150 mM NaCl, 0.005% LMNG; single-particle analysis, C2 symmetry, 2.83 Å"}},
  "data": [
    {"molecule": "Cl/C=C\\Cl", "note": "[cis-1,2-dichloroethene]", "values": [
      {"measurement": "cryo-EM structure, 2.83 A", "setting": "[1]", "value": "density for a dichloroethene (DCE) molecule, the final product of PCE dechlorination"}
    ]},
    {"molecule": "PceA, catalytic subunit of the tetrachloroethene (PCE) reductive dehalogenase from Desulfitobacterium hafniense strain TCE1 (enzyme, UniProt Q8GJ31 40-551, looked up, PceA, catalytic subunit of the PCE reductive dehalogenase, Desulfitobacterium hafniense strain TCE1 (DSM 12704), locus tag DeshaDRAFT_2412; C-terminal domain printed as S486-Q551; Native protein with a cobalamin and two [4Fe-4S] clusters; a menaquinone lies at the interface with PceB; the modelled residues are in PDB 8Q4H; also called DhPceA; RdhA; source: endogenous, D. hafniense strain TCE1: …) ADIVAPITETSEFPYKVDAKYQRYNSLKNFFEKTFDPEANKTPIKFHYDDVSKITGKKDTGKDLPTLNAERLGIKGRPATHTETSILFHTQHLGAMLTQRHNETGWTGLDEALNAGAWAVEFDYSGFNATGGGPGSVIPLYPINPMTNEIANEPVMVPGLYNWDNIDVESVRQQGQQWKFESKEEASKIVKKATRLLGADLVGIAPYDERWTYSTWGRKIYKPCKMPNGRTKYLPWDLPKMLSGGGVEVFGHAKFEPDWEKYAGFKPKSVIVFVLEEDYEAIRTSPSVISSATVGKSYSNMAEVAYKIAVFLRKLGYYAAPCGNDTGISVPMAVQAGLGEAGRNGLLITQKFGPRHRIAKVYTDLELAPDKPRKFGVREFCRLCKKCADACPAQAISHEKDPKVLQPEDCEVAENPYTEKWHLDSNRCGSFWAYNGSPCSNCVAVCSWNKVETWNHDVARIATQIPLLQDAARKFDEWFGYNGPVNPDERLESGYVQNMVKDFWNNPESIKQ", "values": [
      {"measurement": "stoichiometry N", "setting": "[2]", "value": 2}
    ]},
    {"molecule": "PceB, integral membrane anchor subunit of the PCE reductive dehalogenase from Desulfitobacterium hafniense strain TCE1 (natural protein, UniProt Q8GJ30 1-105, looked up, PceB, small integral membrane subunit with three transmembrane helices, encoded in the pceABCT operon of Desulfitobacterium hafniense strain TCE1; also called DhPceB; RdhB; source: endogenous, D. hafniense strain TCE1: DDM-solubilised membrane extract; purified as PceA2B2 complex by size-exclusion chromatography (Superose 6 Increase) for cryo-EM) MNIYDVLIWMALGMTALLIQYGIWRYLKGKGKDTIPLQICGFLANFFFIFALAWGYSSFSEREYQAIGMGFIFFGGTALIPAIITYRLANHPAKKIRESSDSISA", "values": [
      {"measurement": "binding result", "setting": "[3]", "value": "binds"}
    ]}
  ]
}
